The labels stand for the following.
B1: GAL4 transactivation domain fusion of AtDPb 182-263 (prey in pAD-GAL424) (other, not shown: large carriers)
chain: GLPRTSLSDIEELKNERLSLRNRIEKKTAYSQELEEQYVGLQNLIQRNEHLYSSGNAPSGGVALPFILVQTRPHATVEVEI
B2: GAL4 transactivation domain fusion of AtDPa 42-142 (prey in pAD-GAL424) (other, not shown: large carriers)
chain: EKKGQSRTSGGGLRQFSVMVCQKLEAKKITTYKEVADEIISDFATIKQNAEKPLNENEYNEKNIRRRVYDALNVFMALDIIARDKKEIRWKGLPITCKKDV
B3: GAL4 transactivation domain fusion of AtDPa 121-213 (prey in pAD-GAL424) (other, not shown: large carriers)
chain: IIARDKKEIRWKGLPITCKKDVEEVKMDRNKVMSSVQKKAAFLKELREKVSSLESLMSRNQEMVVKTQGPAEGFTLPFILLETNPHAVVEIEI
B4: GAL4 transactivation domain fusion of AtDPa 172-292 (prey in pAD-GAL424) (other, not shown: large carriers)
chain: SLESLMSRNQEMVVKTQGPAEGFTLPFILLETNPHAVVEIEISEDMQLVHLDFNSTPFSVHDDAYILKLMQEQKQEQNRVSSSSSTHHQSQHSSAHSSSSSCIASGTSGPVCWNSGSIDTR
B5: GAL4 transactivation domain fusion of AtDPa 1-142 (prey in pAD-GAL424) (other, not shown: large carriers)
chain: MSMEMELFVTPEKQRQHPSVSVEKTPVRRKLIVDDDSEIGSEKKGQSRTSGGGLRQFSVMVCQKLEAKKITTYKEVADEIISDFATIKQNAEKPLNENEYNEKNIRRRVYDALNVFMALDIIARDKKEIRWKGLPITCKKDV
B6: GAL4 transactivation domain fusion of AtDPb 182-385 (prey in pAD-GAL424) (other, not shown: large carriers)
chain: GLPRTSLSDIEELKNERLSLRNRIEKKTAYSQELEEQYVGLQNLIQRNEHLYSSGNAPSGGVALPFILVQTRPHATVEVEISEDMQLVHFDFNSTPFELHDDNFVLKTMKFCDQPPQQPNGRNNSQLVCHNFTPENPNKGPSTGPTPQLDMYETHLQSQQHQQHSQLQIIPMPETNNVTSSADTAPVKSPSLPGIMNSSMKPEN
B7: GAL4 transactivation domain fusion of AtDPa 121-292 (prey in pAD-GAL424) (other, not shown: large carriers)
chain: IIARDKKEIRWKGLPITCKKDVEEVKMDRNKVMSSVQKKAAFLKELREKVSSLESLMSRNQEMVVKTQGPAEGFTLPFILLETNPHAVVEIEISEDMQLVHLDFNSTPFSVHDDAYILKLMQEQKQEQNRVSSSSSTHHQSQHSSAHSSSSSCIASGTSGPVCWNSGSIDTR
B8: GAL4 transactivation domain fusion of AtDPa 42-292 (prey in pAD-GAL424) (other, not shown: large carriers)
chain: EKKGQSRTSGGGLRQFSVMVCQKLEAKKITTYKEVADEIISDFATIKQNAEKPLNENEYNEKNIRRRVYDALNVFMALDIIARDKKEIRWKGLPITCKKDVEEVKMDRNKVMSSVQKKAAFLKELREKVSSLESLMSRNQEMVVKTQGPAEGFTLPFILLETNPHAVVEIEISEDMQLVHLDFNSTPFSVHDDAYILKLMQEQKQEQNRVSSSSSTHHQSQHSSAHSSSSSCIASGTSGPVCWNSGSIDTR
B9: GAL4 transactivation domain fusion of AtDPb 1-193 (prey in pAD-GAL424) (other, not shown: large carriers)
chain: MTTTGSNSNHNHHESNNNNNNPSTRSWGTAVSGQSVSTSGSMGSPSSRSEQTITVVTSTSDTTFQRLNNLDIQGDDAGSQGASGVKKKKRGQRAAGPDKTGRGLRQFSMKVCEKVESKGRTTYNEVADELVAEFALPNNDGTSPDQQQYDEKNIRRRVYDALNVLMAMDIISKDKKEIQWRGLPRTSLSDIEE

Consider 9 molecules from US20080207449A1 (CROPDESIGN N V, published 2008).

One assay addresses T1, empty pGBT9 (GAL4 DNA-binding domain alone) (UniProt P04386 1-147).
T1 construct: empty bait vector, control for specificity; also called pBGT9
The experiment in a line: yeast two-hybrid, growth on His- minimal medium; empty bait vector control; legend: -, no interaction. The procedure: (§1) Different combinations between bait (pGBTE2Fa226-356, pGBTE2Fb-Rb, or pGBTE2Fb 1-127, SEQ ID NO:207) and prey constructs were transformed into yeast cells and assayed for their ability to grow on His⁻ minimal media after 3 days of incubation at 30° C. Bait plasmids co-transformed with empty pAD-GAL424 and prey plasmids co-transformed with empty pGBT9 were assessed along as controls for the specificity of the interaction.
(§2) Different combinations between AtE2Fs bait and AtDPs prey constructs were tested for growth on His minimal media. −, no interaction; +, positive interaction; NT, not tested.
B1: the binding result was “no binding”.

Take B2: the binding result is “no binding”.

As to B3, the binding result is listed as “no binding”.

Take B4: the binding result was “no binding”.

On to B5, for which the binding result is recorded as “no binding”.

A further assay deals with T2, pGBTE2Fb-Rb: GAL4 DNA-binding domain fusion of AtE2Fb amino acids 1-385 (lacking the Rb-binding domain) (Arabidopsis).
T2 construct: also called E2F3 N-terminal; E2Fb (=E2F3) N-terminal domain
The experiment in a line: yeast two-hybrid, growth on His- minimal medium; legend: +, positive interaction. The procedure: as §1, §2
Consider B6, for which the binding result is reported as “binds”.

For the molecule B1, the binding result was “binds”.

In the case of B7, the binding result is given as “binds”.

As to B8, the binding result was “binds”.

In the next assay the target is T3, pGBTE2Fa226-356: GAL4 DNA-binding domain fusion of AtE2Fa amino acids 226-356 (Arabidopsis).
T3 construct: also called E2F5 dimerisation domain; E2Fa (=E2F5) dimerization domain
The assay is described as above. Here is the method:
as §1, §2
For the molecule B6, the binding result is given as “binds”.

With B1, the binding result is recorded as “binds”.

In the case of B7, the binding result is “binds”.

Take B8: the binding result is recorded as “binds”.

For another assay, the target named is T2, pGBTE2Fb-Rb: GAL4 DNA-binding domain …. The experiment in a line: yeast two-hybrid, growth on His- minimal medium; legend: -, no interaction.
As for B9, the binding result is on record as “no binding”.

Regarding B2, the binding result is “no binding”.

As for B3, the binding result is “no binding”.

For the molecule B4, the binding result was “no binding”.

As for B5, the binding result is recorded as “no binding”.

Another assay addresses T3, pGBTE2Fa226-356: GAL4 DNA-binding …. The description is as above.
Consider B9, for which the binding result is reported as “no binding”.

On to B2, for which the binding result is on record as “no binding”.

Turning to B3, the binding result is on record as “no binding”.

B4: the binding result is reported as “no binding”.

B5: the binding result is “no binding”.
